In patent publication US20170226211A1:

Biological target: Cynomolgus/Rhesus CTLA-4 (cynomolgus/rhesus)
Assay: ELISA, antibody coated, Cynomolgus/Rhesus CTLA-4 titrated

EC50 (read off the curve): 0.2 nM
Substance: Ipilimumab (antibody)
